In PMC8428573:

Molecular target: SARS-CoV-2 spike protein extracellular domain (residues 14 to 1209, S1 and S2 without the transmembrane domain) (SARS-CoV-2) (UniProt P0DTC2)
Test: SEC

SARS-CoV-2 spike protein extracellular domain (residues 14 to 1209, S1 and S2 without the transmembrane domain) (from UniProt P0DTC2 14-1209) (domain or fragment)
stoichiometry N: 3
